Reference: patent US9217011B2, “Non-natural proteinaceous scaffold made of three non-covalently associated peptides” (Complix NV, priority 2007, dated 2015)
Where two headings read alike, the source gives them in different places.

Assay type: physicochemical
Conditions: for reversibility of thermal unfolding (up and down scan): CD signal as a function of temperature, about 1 degree Celsius per minute; for alpha-helical secondary structure from CD spectrum: 292 microM, pH 7.2
Method: The said synthesized peptide was dissolved at a concentration of 292 microM in 20 mM phosphate buffer (PBS), 150 mM NaCl, pH 7.2. The CD spectra were measured between […], at 5 and 90 degrees Celsius (FIG. 3).
To analyse whether the temperature-induced transition between helical and nonhelical states was reversible, a forward (up) and backward (down) thermal scan was performed on the same sample, by recording the CD signal at […] as a function of temperature at a scanning rate of about 1 degree Celsius per minute (FIG. 4).
It was further analyzed whether the thermal unfolding curve of FIG. 4 conformed to the thermodynamic equations describing the equilibrium folding/unfolding reaction between three molecules free (monomeric) peptide and one entity of folded (trimeric) complex. This reaction is generally written as 3 peptide <=> peptide3
[formula] [formula] [formula] and • T≡the temperature, in degrees Kelvin, of the sample • θ(T)≡the CD-signal [theta]222 nm, in deg cm^2 dmol^−1, as a function of T • θM(T)≡the CD-signal for 100% free (monomeric) peptide as a function of T • θT(T)≡the CD-signal for 100% associated (trimeric) peptide as a function of T • Tt≡the transition temperature, where 50% of the total peptide concentration is associated • ΔHt≡the enthalpy difference, in kJ per mole peptide, between mono- and trimeric states • ΔCp≡the heat capacity difference, in J mol^−1 K^−1, between mono- and trimeric states • R≡the ideal (universal) gas constant≡8.31 J mol^−1 K^−1
FIG. 5 represents fitting of a theoretic equation for trimeric association to experimental data. The experimental data are taken from FIG. 4, curve labeled “UP”. The theoretic equations used are listed supra. The fitted parameters (fitting results) are listed at the right in FIG. 5. “Transit. T” corresponds to Tt, but is expressed here in degrees Celsius. The parameter “delta Cp” was kept constant at 3.0 kJ mol^−1 K^−1. The parameters “thetaM(T)” and “thetaT(T)” were treated as linear functions of T, resulting in the white straight lines described by the respective offsets and slopes indicated at the right in the figure. “RMS Resid.” refers to the root-mean-square of the differences between experimental and theoretic data points. The fitted (theoretic) curve itself is plotted in white on the figure and coincides over the entire temperature range with the experimental data points shown in black.

| Substance | thermal stability (in words) | reversibility of thermal unfolding (up and down scan) | temperature up to which the peptide did not quantitatively unfold (thermal CD scan) [degrees Celsius] | estimated transition temperature (thermal denaturation curve, same conditions as Example 3 (292 microM, 20 mM phosphate buffer, 150 mM NaCl, pH 7.2), transition incomplete) | alpha-helical secondary structure from CD spectrum (5 degrees Celsius) | alpha-helical secondary structure from CD spectrum (90 degrees Celsius) |
| --- | --- | --- | --- | --- | --- | --- |
| Ac-MSIEEIQKQIAAIQKQIAAIQKQIYRMTP-NH2 [Q2aI] | extremely thermostable | full reversibility | ≥ 95 | around 97 degrees Celsius |  |  |
| Ac-MSIEEIQKQQAAIQKQIAAIQKQIYRMTP-NH2 [Q2a] | moderately stable | up and down scans almost perfectly coincided |  |  | high alpha-helical secondary structure content | greatly, but not completely, lost |
